One block for each binder: values may come before it.
Legend:
Conditions in all cases: both partners purified
[1] = biological target: T1, Mer3-Strep (full-length S. cerevisiae Mer3 with C-terminal 2xStrep-II tag) (S. cerevisiae, UniProt P51979 1-1187, phosphorylated in insect cells; high-confidence sites S17, S80, T100, S398, S958, T1092); test: pull-down; Mer3-Strep (0.7 μM) on streptavidin magnetic beads, His-Dmc1 3.2 μM or Rad51 2.8 μM; 25 mM HEPES pH 7.5, 5% glycerol, 100 mM NaCl, 1 mM TCEP, 0.1% Tween-20; stained gel
T1 sequence (looked up): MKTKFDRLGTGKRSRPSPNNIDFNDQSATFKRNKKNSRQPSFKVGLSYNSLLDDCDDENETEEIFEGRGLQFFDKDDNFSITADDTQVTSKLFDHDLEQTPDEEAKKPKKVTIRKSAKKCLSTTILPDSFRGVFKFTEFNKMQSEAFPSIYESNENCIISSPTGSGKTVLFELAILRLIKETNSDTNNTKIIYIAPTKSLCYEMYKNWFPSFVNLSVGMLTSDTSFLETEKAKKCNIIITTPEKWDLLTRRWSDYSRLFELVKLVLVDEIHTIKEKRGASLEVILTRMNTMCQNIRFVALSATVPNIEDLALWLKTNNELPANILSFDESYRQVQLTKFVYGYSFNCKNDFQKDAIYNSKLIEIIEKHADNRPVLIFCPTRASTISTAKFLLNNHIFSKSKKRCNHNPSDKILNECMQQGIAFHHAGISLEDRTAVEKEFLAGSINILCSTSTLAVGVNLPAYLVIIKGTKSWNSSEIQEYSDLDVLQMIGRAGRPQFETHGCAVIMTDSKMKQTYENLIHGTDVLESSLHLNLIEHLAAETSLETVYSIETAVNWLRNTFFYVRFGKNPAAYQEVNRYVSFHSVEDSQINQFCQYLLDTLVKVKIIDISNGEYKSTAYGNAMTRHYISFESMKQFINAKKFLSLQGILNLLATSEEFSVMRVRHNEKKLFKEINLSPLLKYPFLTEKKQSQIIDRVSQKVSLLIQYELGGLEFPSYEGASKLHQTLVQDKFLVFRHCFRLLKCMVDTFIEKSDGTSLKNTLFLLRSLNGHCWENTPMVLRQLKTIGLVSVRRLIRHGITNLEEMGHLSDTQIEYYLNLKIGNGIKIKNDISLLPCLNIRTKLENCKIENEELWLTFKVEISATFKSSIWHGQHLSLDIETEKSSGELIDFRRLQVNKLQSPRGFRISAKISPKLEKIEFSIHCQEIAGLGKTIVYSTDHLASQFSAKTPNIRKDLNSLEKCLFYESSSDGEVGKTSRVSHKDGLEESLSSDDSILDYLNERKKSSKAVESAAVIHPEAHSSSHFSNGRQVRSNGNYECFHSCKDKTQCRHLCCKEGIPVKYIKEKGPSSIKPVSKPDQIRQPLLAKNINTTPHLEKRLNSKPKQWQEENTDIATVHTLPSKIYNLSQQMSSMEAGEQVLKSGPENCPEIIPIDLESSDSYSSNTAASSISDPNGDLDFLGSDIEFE

[2] = biological target: T2, Top3/Rmi1 complex (as used in MST and XL-MS) (S. cerevisiae, UniProt P13099 1-656; Q02685 1-241); test: MST; 30 nM RED-NHS labelled Sgs1(1–605), Top3–Rmi1 titrated; 50 mM Tris–HCl pH 7.4, 150 mM NaCl, 10 mM MgCl2, 0.05% Tween-20; 25°C; triplicates
T2 construct: Top3 (type IA topoisomerase), S. cerevisiae, from SK1 strain genomic DNA; untagged; Rmi1, S. cerevisiae, from SK1 strain genomic DNA; The methods describe a GST-tagged and an untagged (3C protease cleaved) preparation; source: Hi5 insect cells (co-expressed from pBIG1a), purified
T2 sequence (looked up) 1: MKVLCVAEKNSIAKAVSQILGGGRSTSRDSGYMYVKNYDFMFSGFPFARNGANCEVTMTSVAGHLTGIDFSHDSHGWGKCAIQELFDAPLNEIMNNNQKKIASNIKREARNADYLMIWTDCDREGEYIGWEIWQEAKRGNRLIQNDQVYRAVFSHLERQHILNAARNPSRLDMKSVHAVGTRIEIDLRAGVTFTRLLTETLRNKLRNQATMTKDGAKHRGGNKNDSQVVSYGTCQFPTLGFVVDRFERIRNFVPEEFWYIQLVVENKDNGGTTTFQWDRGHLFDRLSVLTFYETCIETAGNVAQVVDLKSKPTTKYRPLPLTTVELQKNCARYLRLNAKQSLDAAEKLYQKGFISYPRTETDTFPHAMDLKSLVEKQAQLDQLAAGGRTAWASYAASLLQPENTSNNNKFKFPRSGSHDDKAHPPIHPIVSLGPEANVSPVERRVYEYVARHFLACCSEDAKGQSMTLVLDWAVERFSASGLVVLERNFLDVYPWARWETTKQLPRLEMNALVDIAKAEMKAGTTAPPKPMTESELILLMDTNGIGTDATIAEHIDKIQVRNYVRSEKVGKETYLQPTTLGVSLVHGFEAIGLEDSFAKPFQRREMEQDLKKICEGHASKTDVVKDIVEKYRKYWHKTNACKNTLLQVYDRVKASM
T2 sequence (looked up) 2: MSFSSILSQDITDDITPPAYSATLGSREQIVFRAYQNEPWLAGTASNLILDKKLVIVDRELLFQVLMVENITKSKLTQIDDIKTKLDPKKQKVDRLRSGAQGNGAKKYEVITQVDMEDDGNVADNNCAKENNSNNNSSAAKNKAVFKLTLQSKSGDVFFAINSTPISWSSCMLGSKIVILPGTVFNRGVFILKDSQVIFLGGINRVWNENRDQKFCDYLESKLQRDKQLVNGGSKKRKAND

Top3/GST-Rmi1 complex = biological target: T3, Top3/GST-Rmi1 complex (S. cerevisiae, UniProt P13099 1-656; Q02685 1-241); test: pull-down; competition: Top3/GST-Rmi1 (1 μM) on glutathione beads, Mer3-Strep 1 μM, His-Sgs1(1–107) 8 or 25 μM; 25 mM HEPES pH 7.5, 5% glycerol, 100 mM NaCl, 1 mM TCEP, 0.1% Tween-20; Coomassie
T3 construct: Top3 (type IA topoisomerase), S. cerevisiae, from SK1 strain genomic DNA; untagged; Rmi1, S. cerevisiae, from SK1 strain genomic DNA; also called GST-tagged Top3–Rmi1; GST-Rmi1/Top3; source: Hi5 insect cells (co-expressed from pBIG1a), purified (GSTrap, ResourceS, SEC); not shown: GST, N-terminal, kept
T3 sequence (looked up) 1: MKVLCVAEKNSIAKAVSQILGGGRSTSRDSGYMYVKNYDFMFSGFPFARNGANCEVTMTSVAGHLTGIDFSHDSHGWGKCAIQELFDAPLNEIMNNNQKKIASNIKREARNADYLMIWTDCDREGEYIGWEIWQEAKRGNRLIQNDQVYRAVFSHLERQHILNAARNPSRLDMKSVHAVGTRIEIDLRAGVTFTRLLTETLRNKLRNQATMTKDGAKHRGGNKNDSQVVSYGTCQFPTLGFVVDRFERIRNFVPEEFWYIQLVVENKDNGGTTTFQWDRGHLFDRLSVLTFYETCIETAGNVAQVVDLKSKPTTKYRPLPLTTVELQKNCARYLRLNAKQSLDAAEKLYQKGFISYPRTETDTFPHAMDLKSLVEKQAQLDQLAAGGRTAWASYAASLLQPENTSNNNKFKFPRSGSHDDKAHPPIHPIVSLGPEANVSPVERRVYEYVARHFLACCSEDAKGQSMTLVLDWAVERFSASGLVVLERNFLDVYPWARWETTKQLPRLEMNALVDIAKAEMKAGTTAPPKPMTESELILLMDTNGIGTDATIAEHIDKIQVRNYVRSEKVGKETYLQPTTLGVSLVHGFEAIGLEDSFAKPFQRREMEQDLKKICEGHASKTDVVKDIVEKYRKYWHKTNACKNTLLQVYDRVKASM
T3 sequence (looked up) 2: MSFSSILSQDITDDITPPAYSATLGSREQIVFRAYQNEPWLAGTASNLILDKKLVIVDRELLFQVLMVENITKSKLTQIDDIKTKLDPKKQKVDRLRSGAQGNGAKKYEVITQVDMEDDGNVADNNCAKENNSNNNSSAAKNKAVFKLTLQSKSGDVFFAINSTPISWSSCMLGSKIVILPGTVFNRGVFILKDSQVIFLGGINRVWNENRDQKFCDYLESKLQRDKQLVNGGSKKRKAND

binding result [1]: binds
B1: His-Dmc1 (natural protein, yeast, UniProt P25453 1-334, looked up)
chain: MSVTGTEIDSDTAKNILSVDELQNYGINASDLQKLKSGGIYTVNTVLSTTRRHLCKIKGLSEVKVEKIKEAAGKIIQVGFIPATVQLDIRQRVYSLSTGSKQLDSILGGGIMTMSITEVFGEFRCGKTQMSHTLCVTTQLPREMGGGEGKVAYIDTEGTFRPERIKQIAEGYELDPESCLANVSYARALNSEHQMELVEQLGEELSSGDYRLIVVDSIMANFRVDYCGRGELSERQQKLNQHLFKLNRLAEEFNVAVFLTNQVQSDPGASALFASADGRKPIGGHVLAHASATRILLRKGRGDERVAKLQDSPDMPEKECVYVIGEKGITDSSD

Kd [2]: 478 ± 205 nM
B2: Sgs1(1–605) (domain or fragment, S. cerevisiae, UniProt P35187 1-605, looked up)
chain: MVTKPSHNLRREHKWLKETATLQEDKDFVFQAIQKHIANKRPKTNSPPTTPSKDECGPGTTNFITSIPASGPTNTATKQHEVMQTLSNDTEWLSYTATSNQYADVPMVDIPASTSVVSNPRTPNGSKTHNFNTFRPHMASSLVENDSSRNLGSRNNNKSVIDNSSIGKQLENDIKLEVIRLQGSLIMALKEQSKLLLQKCSIIESTSLSEDAKRLQLSRDIRPQLSNMSIRIDSLEKEIIKAKKDGMSKDQSKGRSQVSSQDDNIISSILPSPLEYNTSSRNSNLTSTTATTVTKALAITGAKQNITNNTGKNSNNDSNNDDLIQVLDDEDDIDCDPPVILKEGAPHSPAFPHLHMTSEEQDELTRRRNMRSREPVNYRIPDRDDPFDYVMGKSLRDDYPDVEREEDELTMEAEDDAHSSYMTTRDEEKEENELLNQSDFDFVVNDDLDPTQDTDYHDNMDVSANIQESSQEGDTRSTITLSQNKNVQVILSSPTAQSVPSNGQNQIGVEHIDLLEDDLEKDAILDDSMSFSFGRQHMPMSHSDLELIDSEKENEDFEEDNNNNGIEYLSDSDLERFDEERENRTQVADIQELDNDLKIITERKL
notes: Sgs1 helicase, S. cerevisiae, from SK1 strain genomic DNA, residues 1-605; For MST the fragment was labelled with RED-NHS dye; also called untagged Sgs1(1–605); N-terminal fragment of Sgs1; source: E. coli BL21 STAR, purified (MBPtrap, ResourceQ, 3C cleavage, SEC); not shown: His6, N-terminal, cleaved; MBP, N-terminal, cleaved

binding result (Top3/GST-Rmi1 complex): binds
B3: His-tagged Sgs1(1–107) (domain or fragment, S. cerevisiae, UniProt P35187 1-107, looked up)
chain: MVTKPSHNLRREHKWLKETATLQEDKDFVFQAIQKHIANKRPKTNSPPTTPSKDECGPGTTNFITSIPASGPTNTATKQHEVMQTLSNDTEWLSYTATSNQYADVPM
notes: also called shorter fragment of Sgs1; source: E. coli BL21 STAR, purified (Ni-NTA, ResourceQ, SEC); not shown: His6, N-terminal, kept

— PMC10201424, “Biochemical characterisation of Mer3 helicase interactions and the protection of meiotic recombination intermediates” (Nucleic Acids Research, 2022)
